Assay results as given in article PMC5943153 (Molecular microbiology, 2018).
Where “and” joins values, the source holds several entries; their conditions need not be identical. Identical values can stand only once.

T1: T25-HP0221 (NifU) (Helicobacter pylori strain 26695, UniProt O25009 2-326)
T1 sequence (looked up): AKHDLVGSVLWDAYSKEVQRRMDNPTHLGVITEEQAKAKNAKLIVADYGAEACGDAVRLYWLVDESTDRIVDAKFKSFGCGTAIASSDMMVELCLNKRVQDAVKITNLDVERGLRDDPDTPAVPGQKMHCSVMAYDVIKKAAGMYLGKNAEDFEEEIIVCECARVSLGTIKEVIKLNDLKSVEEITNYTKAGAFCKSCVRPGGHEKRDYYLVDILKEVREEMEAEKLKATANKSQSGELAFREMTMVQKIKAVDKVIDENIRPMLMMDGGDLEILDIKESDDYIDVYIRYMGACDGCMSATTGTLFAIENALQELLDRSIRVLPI

T2: HP0221-T25 (NifU) (Helicobacter pylori strain 26695, UniProt O25009 2-326)
T2 sequence (looked up): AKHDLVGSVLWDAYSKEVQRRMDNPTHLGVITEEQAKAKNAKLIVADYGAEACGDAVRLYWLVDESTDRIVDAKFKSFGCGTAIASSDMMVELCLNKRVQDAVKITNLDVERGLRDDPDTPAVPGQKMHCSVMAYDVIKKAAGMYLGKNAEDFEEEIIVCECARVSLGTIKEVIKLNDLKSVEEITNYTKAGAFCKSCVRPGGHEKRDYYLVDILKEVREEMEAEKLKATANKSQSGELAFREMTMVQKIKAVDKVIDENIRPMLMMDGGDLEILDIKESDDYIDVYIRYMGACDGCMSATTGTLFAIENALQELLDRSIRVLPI

T3: T25-HP1492 (Nfu) (Helicobacter pylori strain 26695, UniProt O26025 2-89)
T3 sequence (looked up): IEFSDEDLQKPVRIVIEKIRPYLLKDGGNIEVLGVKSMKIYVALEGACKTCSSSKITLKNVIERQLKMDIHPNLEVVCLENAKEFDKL


Assays:
SEC = target: the molecule itself; assay: SEC
T25-HP0220 (NifS) = T25-HP0220 (NifS) (Helicobacter pylori strain 26695, UniProt O25008 2-387); assay: two-hybrid
T25-HP0221 (NifU) = target: T1, T25-HP0221 (NifU); assay: two-hybrid
HP0221-T25 (NifU) = target: T2, HP0221-T25 (NifU); assay: two-hybrid
T25-HP1492 (Nfu) = target: T3, T25-HP1492 (Nfu); assay: two-hybrid

| Binder | stoichiometry N (SEC) | growth OD595 in M63-maltose (T25-HP0220 (NifS)) [OD595] | growth OD595 in M63-maltose (T25-HP0221 (NifU)) [OD595] | growth OD595 in M63-maltose (HP0221-T25 (NifU)) [OD595] | growth OD595 in M63-maltose (T25-HP1492 (Nfu)) [OD595] |
| --- | --- | --- | --- | --- | --- |
| NifU (purified recombinant) (natural protein, Helicobacter pylori strain 26695, UniProt O25009 1-326, looked up) MAKHDLVGSVLWDAYSKEVQRRMDNPTHLGVITEEQAKAKNAKLIVADYGAEACGDAVRLYWLVDESTDRIVDAKFKSFGCGTAIASSDMMVELCLNKRVQDAVKITNLDVERGLRDDPDTPAVPGQKMHCSVMAYDVIKKAAGMYLGKNAEDFEEEIIVCECARVSLGTIKEVIKLNDLKSVEEITNYTKAGAFCKSCVRPGGHEKRDYYLVDILKEVREEMEAEKLKATANKSQSGELAFREMTMVQKIKAVDKVIDENIRPMLMMDGGDLEILDIKESDDYIDVYIRYMGACDGCMSATTGTLFAIENALQELLDRSIRVLPI | 2 | – | – | – | – |
| T18-HP0207 (natural protein, Helicobacter pylori strain 26695, UniProt O24999 2-368, looked up) LTQEDVLNALKTIIYPNFEKDIVSFGFVKNITLHDDQLGLLIEIPSSSEETSAILRENISKAMQEKGVKALNLDIKTPPKPQAPKPTTKNLAKNIKHVVMISSGKGGVGKSTTSVNLSIALANLNQKVGLLDADVYGPNIPRMMGLQSADVIMDPSGKKLIPLKAFGVSVMSMGLLYDEGQSLIWRGPMLMRAIEQMLSDIIWGDLDVLVVDMPPGTGDAQLTLAQAVPLSAGITVTTPQIVSLDDAKRSLDMFKKLHIPIAGIVENMGSFVCEHCKKESEIFGSNSMSELLEAYHTQILAKLPLEPKVRLGGDRGEPIVISHPNSVSAKIFEKMAQDLSAFLERVKKEKLADNKDIQPTQTHACSH | – | 0.23 | 0.14 | 0.13 | 0.21 |
| NifS (purified recombinant) (enzyme, Helicobacter pylori strain 26695, UniProt O25008 1-387, looked up) MLQRIYLDNNATTRIDPKVKEIMDPFLRDHYGNPSSLHQFGTETHPAIAEALDKLYKGINARDIDDVIITSCATESNNWVLKGVYFDECLKKGKNHIVTTVAEHPAVRSTCNFLESLGVEVTYLPINEHGSITAEQVKEAITEKTALVSVMWANNETGLIFPIEEIGAICKEKGVLFHTDAVQAIGKIPVDVLKANADFLSFSAHKFHGPKGIGGLYIRSGVGLTPLFHGGEHMNGRRSGTLNVPYIVGMGEAMKLAVEHLDYEKEVVGKLRDKLEEALLKIPDVMVVGDRIHRVPNTTLVSVRGIEGEAMLWDLNRSNIAASTGSACASEDLEANPVMVAIGASKELAHTAIRLSLSRFNTEAEIDKTIEVFSQAAVRLRNISSSY | 2 | – | – | – | – |
| T18-HP1266 (natural protein, Helicobacter pylori strain 26695, UniProt O25856 2-844, looked up) ITMNINGKTIECQEGQSVLEAARSAGIYIPTICYLSGCSPTVACKMCMVEMDGKRVYSCNTKAKNNATILTNTPTLMDERKSIMQTYDVNHPLECGVCDKSGECELQDMTHLTGVEHQPYAVADDFKALDFWAKALYDPNLCIMCERCVTTCKDNVGENNLKATKADLHAPDKFKDSMSKDAFSVWSRKQKGIISFVGSVPCYDCGECIAVCPVGALSYKDFAYTANAWELKKIHSTCSHCSAGCLISYDVRHFDTLGEESKIFRVLNDFYHNPICGAGRFAFDVSSSPKGSANLKEAQNALKECEAVRIGGDITNEEAFLIERLRKELDFKIYNQEAYRFQQFLKVLGEIKRPSVEEIKTSHLVVTIGSSIKTENPLVRYAINNALKLNKASLIAMHPIKDNALANLCRSSFCITHEVGAEEILLGMLLKMLNIESAALKSLEDSKQNIVDEAALKALEEERKKALEQAEQGCSIGENKAENQEENKTEATTPKEENQEENKTEVKEEKIEVPTKTTYLLLEEAGINLETYEKILALLQKSNNTLLVVGEEIYSHKQAHNIAKMLRLLAQKSAIKLILIPPSANALGIASICQLSEEIFEHEKIVGIRAQGDFTINSDDRVFGKDAASKVDFILPSLNQLEGTITNIEGRVLPLKPALRFEGYDLSDIMQGFGFVEENLIECTHKLPTEAGFKAIEFDYLTNYFANDRVNHRGYLLGTSHFEKSAKECETIECEPIKPLKEKIAFNAYLKYPETQFNNATNKSENLQLKAGVYVSKAFLKKLNKEVGQNITLSKEEEELTGVLYLDESLDQEVFVISPSLLKNHSGFFREGVFDSVDLKEQA | – | 0.16 | – | – | 0.24 |
| T18-HP0221 (natural protein, Helicobacter pylori strain 26695, UniProt O25009 2-326, looked up) AKHDLVGSVLWDAYSKEVQRRMDNPTHLGVITEEQAKAKNAKLIVADYGAEACGDAVRLYWLVDESTDRIVDAKFKSFGCGTAIASSDMMVELCLNKRVQDAVKITNLDVERGLRDDPDTPAVPGQKMHCSVMAYDVIKKAAGMYLGKNAEDFEEEIIVCECARVSLGTIKEVIKLNDLKSVEEITNYTKAGAFCKSCVRPGGHEKRDYYLVDILKEVREEMEAEKLKATANKSQSGELAFREMTMVQKIKAVDKVIDENIRPMLMMDGGDLEILDIKESDDYIDVYIRYMGACDGCMSATTGTLFAIENALQELLDRSIRVLPI | – | 0.12 | – | – | 0.08 |
| Nfu (purified recombinant) (natural protein, Helicobacter pylori strain 26695, UniProt O26025 1-89, looked up) MIEFSDEDLQKPVRIVIEKIRPYLLKDGGNIEVLGVKSMKIYVALEGACKTCSSSKITLKNVIERQLKMDIHPNLEVVCLENAKEFDKL | 4 and 2 | – | – | – | – |
| T18-HP0277 (natural protein, Helicobacter pylori strain 26695, UniProt O25054 2-84, looked up) SLLVNDECIACDACREECPSEAIEEGDPIYNIDPDRCTECYGYDDDEPRCVSVCPVDAILPDPNNAESKEELKYKYESLKEQD | – | 0.3 | – | – | 0.4 |
| T18-HP0220 (natural protein, Helicobacter pylori strain 26695, UniProt O25008 2-387, looked up) LQRIYLDNNATTRIDPKVKEIMDPFLRDHYGNPSSLHQFGTETHPAIAEALDKLYKGINARDIDDVIITSCATESNNWVLKGVYFDECLKKGKNHIVTTVAEHPAVRSTCNFLESLGVEVTYLPINEHGSITAEQVKEAITEKTALVSVMWANNETGLIFPIEEIGAICKEKGVLFHTDAVQAIGKIPVDVLKANADFLSFSAHKFHGPKGIGGLYIRSGVGLTPLFHGGEHMNGRRSGTLNVPYIVGMGEAMKLAVEHLDYEKEVVGKLRDKLEEALLKIPDVMVVGDRIHRVPNTTLVSVRGIEGEAMLWDLNRSNIAASTGSACASEDLEANPVMVAIGASKELAHTAIRLSLSRFNTEAEIDKTIEVFSQAAVRLRNISSSY | – | 0.29 | 0.13 | 0.11 | 0.22 |
